According to patent publication US20050152926A1:

Experiments:
[1] = target: HLA A2 on RMA-S/A2 cells (human); assay: BB7.2 staining of RMA-S/A2 cells without peptide (peptide-free control); FIG 1(i)
[2] = target: HLA A2 on RMA-S/A2 cells (human); assay: BB7.2 staining of RMA-S/A2 cells without peptide (peptide-free control); FIG 2(i)
[3] = target: HLA A2 on RMA-S/A2 cells (human); assay: BB7.2 staining of RMA-S/A2 cells without peptide (peptide-free control); FIG 3(i)

Substance: anti-A2 specific BB7.2 monoclonal antibody
- Mean 2 [1]: 380
- Δ Mean [1]: 193
- Mean 2 [2]: 311
- Δ Mean [2]: 154
- Mean 2 [3]: 282
- Δ Mean [3]: 151
